The supplement of paper PMC10567573

B1: ZER1 (parent)
chain: PILRLLPQGISPVSQHWATWALYN

Variants of: B1
Assay: protein stability index of a GFP-peptide fusion (GPS, HEK-293T) (PSI 1-6); higher = more stable
Conditions: c terminus: a fixed tail appended
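Also: lentivirally expressed fusions sorted by FACS into six bins by GFP to DsRed ratio, PSI derived from sequencing read proportions per bin multiplied by bin number.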

Variant | protein stability index
PILRLLPQGISPVSQHWAKWALYN [T19K] | 2.3
PILRLLPQGISPVSQHWAAWALYN [T19A] | 2.69
PILRLLPQGISPVSQHWAPWALYN [T19P] | 2.12
PILRLLPQGISPVSQHWAGWALYN [T19G] | 1.97
PILRLLPQGISPVSQHWADWALYN [T19D] | 2.33
PILRLLPQGISPVSGHWATWALYN [Q15G] | 1
PILRLLPQGISPVSVHWATWALYN [Q15V] | 3.31
PILRLLPQGISPVSFHWATWALYN [Q15F] | 2.68
PILRLLPQGISPVSTHWATWALYN [Q15T] | 3.05
PILRLLPQGISPVSNHWATWALYN [Q15N] | 2.99
PILRLLPQGISPVSEHWATWALYN [Q15E] | 2.19
PILRLLPQGISPVSMHWATWALYN [Q15M] | 4.6
PILRLLPQGISPVSKHWATWALYN [Q15K] | 2.97
PILRLLPQGISPVSLHWATWALYN [Q15L] | 1.94
PILRLLPQGISPVSQHWATWALYM [N24M] | 3.8
PILRLLPQGISPVSQHWATWALYP [N24P] | 3.08
PILRLLPQGISPVSQHWATWALYV [N24V] | 3.21
PILRLLPQGISPVSQHWATWALYT [N24T] | 2.25
PILRLLPQGISPVSQHWATWALYH [N24H] | 2.93
PILRLLPQGISPVSQHWATWALYQ [N24Q] | 2.31
PILRLLPQGISPVSQHWATWALYL [N24L] | 4.12
PILRLLPQGISPVSQHWATWALYI [N24I] | 3.12
PILRLLPQGISPVSQHWATWALYD [N24D] | 3.49
PILRLLPQGISPVSQHWATWALYW [N24W] | 2.32

Variant | protein stability index
PILRLLPQGISPVSQHWATWALYA [N24A] | 2.09
PILRLLPQGISPVSQHWATWALYR [N24R] | 4.17
PILRLLPQGISPVSQHWATWYLYN [A21Y] | 4.95
PILRLLPQGISPVSQHWATWMLYN [A21M] | 3.29
PILRLLPQGISPVSQHWATWVLYN [A21V] | 3.96
PILRLLPQGISPVSQHWATWNLYN [A21N] | 1.76
PILRLLPQGISPVSQHWATWSLYN [A21S] | 2.6
PILRLLPQGISPVSQHWATWILYN [A21I] | 3.15
PILRLLPQGISPVSQHWATWLLYN [A21L] | 2.38
PILRLLPQGISPVSQHWATWQLYN [A21Q] | 3.72
PILRLLPQGISPVSQHWATWPLYN [A21P] | 2.65
PILRLLPQGISPVSQHWATWFLYN [A21F] | 2.7
PILRLLPQGISPVSQHWATWRLYN [A21R] | 1
PILRLLPQGISPVSQHWATWKLYN [A21K] | 2.07
PILRLLPQGISPVSQHWATWCLYN [A21C] | 2.69
PILRLLPQGISPVSQHWATWELYN [A21E] | 2.6
PILRLLPQGISPVSQHWATWTLYN [A21T] | 2.57
PILRLLPQGISPVSQHWATWDLYN [A21D] | 2.79
PILRLLPQGISPVSQHWATWWLYN [A21W] | 2.29
PILRLLPQGISPVSQHWATWAYYN [L22Y] | 2.83
PILRLLPQGISPVSQHWATWAWYN [L22W] | 4.02
PILRLLPQGISPVSQHWATWAEYN [L22E] | 1.58
PILRLLPQGISPVSQHWATWAHYN [L22H] | 1.58
PILRLLPQGISPVSQHWATWARYN [L22R] | 3.48

Variant | protein stability index
PILRLLPQGISPVSQHWATWASYN [L22S] | 1.71
PILRLLPQGISPVSQHWATWAGYN [L22G] | 2.3
PILRLLPQGISPVSQHWATWAPYN [L22P] | 1.57
PILRLLPQGISPVSQHWATWAKYN [L22K] | 1.52
PILRLLPQGISPVSQHWATWAAYN [L22A] | 3.32
PILRLLPQGISPVSQHWATWAQYN [L22Q] | 3.18
PILRLLPQGISPVSQHWATWANYN [L22N] | 1.88
PILRLLPQGISPVSQHWATWADYN [L22D] | 2.02
PILRLLPQGISPVSQHWKTWALYN [A18K] | 2.89
PILRLLPQGISPVSQHWMTWALYN [A18M] | 2.28
PILRLLPQGISPVSQHWYTWALYN [A18Y] | 4.06
PILRLLPQGISPVSQHWETWALYN [A18E] | 2.82
PILRLLPQGISPVSQHWHTWALYN [A18H] | 2.94
PILRLLPQGISPVSQHWLTWALYN [A18L] | 2.27
PILRLLPQGISPVSQHWCTWALYN [A18C] | 1.74
PILRLLPQGISPVSQHWNTWALYN [A18N] | 3.82
PILRLLPQGISPVSQHWITWALYN [A18I] | 1.83
PILRLLPQGISPVSQHWGTWALYN [A18G] | 2.24
PILRLLPQGISPVSQHWTTWALYN [A18T] | 3.18
PILRLLPQGISPVSQHWRTWALYN [A18R] | 2.58
PILRLLPQGISPVSQHWATYALYN [W20Y] | 2.5
PILRLLPQGISPVSQHWATGALYN [W20G] | 1.37
PILRLLPQGISPVSQHWATFALYN [W20F] | 3.5
PILRLLPQGISPVSQHWATCALYN [W20C] | 3.55

Variant | protein stability index
PILRLLPQGISPVSQHWATRALYN [W20R] | 1.64
PILRLLPQGISPVSQHWATQALYN [W20Q] | 1.47
PILRLLPQGISPVSQHWATSALYN [W20S] | 2.41
PILRLLPQGISPVSQHWATIALYN [W20I] | 4.55
PILRLLPQGISPVSQHWATNALYN [W20N] | 2.09
PILRLLPQGISPVSQHWATDALYN [W20D] | 2.6
PILRLLPQGISPVSQHWATTALYN [W20T] | 3.72
PILRLLPQGISPVSQHWATHALYN [W20H] | 2.61
PILRLLPQGISPVSQHWATKALYN [W20K] | 1.28
PILRLLPQGISPVSQHWATEALYN [W20E] | 1.58
PILRLLPQGISPVSQHWATPALYN [W20P] | 2.79
PILRLLPQGISPVSQHWATMALYN [W20M] | 3.46
PILRLLPQGISPVSQHWATAALYN [W20A] | 2.62
PILRLLPQGISPVYQHWATWALYN [S14Y] | 2.6
PILRLLPQGISPVTQHWATWALYN [S14T] | 1.11
PILRLLPQGISPVVQHWATWALYN [S14V] | 2.62
PILRLLPQGISPVKQHWATWALYN [S14K] | 1.43
PILRLLPQGISPVQQHWATWALYN [S14Q] | 2.12
PILRLLPQGISPVCQHWATWALYN [S14C] | 2.98
PILRLLPQGISPVSQHWATWALPN [Y23P] | 1.54
PILRLLPQGISPVSQHWATWALGN [Y23G] | 2.11
PILRLLPQGISPVSQHWATWALWN [Y23W] | 4.62
